{"source": "patent US20110059095A1", "binders": {"B1": {"name": "H3M620N (antibody, V domains shown)", "VH": "EVQLVESGGNVVRPGGSLRLSCAASGFTFDDYGMTWVRQVPGKGLEWVSGINWNGGSTDYADSVKGRFTISRDNAKNSLYLQMNSLRAEDTALYYCARDKGFYGMDVWGQGTTVTVSS", "VL": "DIVMTQSPDSLAVSLGERATINCKSSQNPLYNSNKKKYLAWYQQKPGQPPKLVIYWASTRESGVPDRFSGSGSGTDFTLTITSLQAEDVAVYYCQQYYSTPYTFGQGTKLEIK"}, "B2": {"name": "H4H581P (antibody, human IgG4, V domains shown)", "VH": "QVQLVESGGGVVQPGRSLRLSCVASGFTFSRYGIHWVRQAPGKGLEWVIVISYDGINKYYADSVKGRFTISRDNSKNTVYLQMNSLRAEDTAVYYCAKGDFWSGYFDYWGQGTLVTVSS", "VL": "DIVMTQTPLSSPVTLGQPASISCRSSQSLVHSDGNTYLSWLHQRPGQPPRLLIYKISNRFSGVPDRFSGSGAGTDFTLQISRVEAEDVGIYYCMQATQFPTFGGGTKVEIK"}, "B3": {"name": "Human Kallikrein 14 (enzyme, UniProt Q9P0G3 25-251, looked up)", "chain": "IIGGHTCTRSSQPWQAALLAGPRRRFLCGGALLSGQWVITAAHCGRPILQVALGKHNLRRWEATQQVLRVVRQVTHPNYNSRTHDNDLMLLQLQQPARIGRAVRPIEVTQACASPGTSCRVSGWGTISSPIARYPASLQCVNINISPDEVCQKAYPRTITPGMVCAGVPQGGKDSCQGDSGGPLVCRGQLQGLVSWGMERCALPGYPGVYTNLCKYRSWIEETMRDK"}, "B4": {"name": "H2M609N (antibody, V domains shown)", "VH": "EVQLVESGGGLVQPGRSLRLSCAASGFTFDDYAMHWVRQAPGKGLEWVSGISWNSGSKGFADSVKGRFTISRDNAKNSLYLQMNSLRVEDTALYYCAKENWSFDYWGQGTLVTVSS", "VL": "DIVMTQTPLSSPVTLGQPASISCRSSQSLVHSDGNIYLSWLQQRPGQPPRLLIYKISNRFSGVPDRFSGSGAGTDFTLKISRVEAEDVGIYYCMQASHFPYTFGQGTKLEIK"}, "B5": {"name": "H1M619N (antibody, V domains shown)", "VH": "B4 VH with P14A, K58R, F60Y, Y80H, N84Y, V88A", "VL": "B4 VL with I36T, N58Y, E84A, A85T, I90V, S97T, H98Q, F99L"}, "B6": {"name": "H2M611N (antibody, V domains shown)", "VH": "EVQLLESGGGLVQPGGSLRLSCAASGFTFSSYAMTWVRQAPGKGLYWVSAISGSGGSAYYADSVKGRFTISRDNSKNTLYLQMNSLRAEDTAVYYCAKEGDSGYDLDYWGRGTLVTVSS", "VL": "DIQMTQSPSSLSASVGDRVTITCRARQGISNYLAWLQQKPGKAPKSLIYAASSLQSGVPSKFSGSGSGTDFTLTISSLQPEDFATYYCQQYKSSPLTFGGGTKVEIK"}}, "key": {"[1]": {"molecular_target": "full length human PAR-2 (human) (UniProt P55085)", "sequence (P55085 26-397 G138A limits assumed)": "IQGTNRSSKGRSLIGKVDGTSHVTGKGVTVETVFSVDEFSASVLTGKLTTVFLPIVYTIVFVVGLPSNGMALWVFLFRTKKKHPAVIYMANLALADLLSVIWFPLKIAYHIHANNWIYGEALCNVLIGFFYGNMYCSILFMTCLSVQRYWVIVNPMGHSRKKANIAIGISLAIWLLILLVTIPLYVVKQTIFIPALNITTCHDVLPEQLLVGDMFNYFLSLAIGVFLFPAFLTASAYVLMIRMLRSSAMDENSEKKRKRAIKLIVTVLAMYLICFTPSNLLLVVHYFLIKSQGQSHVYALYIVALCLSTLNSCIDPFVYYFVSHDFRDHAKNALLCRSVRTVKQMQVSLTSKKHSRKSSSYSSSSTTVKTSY", "test": "cell ELISA, 10 ug/ml antibody"}, "[2]": {"molecular_target": "full length mouse PAR-2 (mouse) (UniProt P55086)", "sequence (P55086 other isoform, or with tags, fused parts or gaps limits assumed)": "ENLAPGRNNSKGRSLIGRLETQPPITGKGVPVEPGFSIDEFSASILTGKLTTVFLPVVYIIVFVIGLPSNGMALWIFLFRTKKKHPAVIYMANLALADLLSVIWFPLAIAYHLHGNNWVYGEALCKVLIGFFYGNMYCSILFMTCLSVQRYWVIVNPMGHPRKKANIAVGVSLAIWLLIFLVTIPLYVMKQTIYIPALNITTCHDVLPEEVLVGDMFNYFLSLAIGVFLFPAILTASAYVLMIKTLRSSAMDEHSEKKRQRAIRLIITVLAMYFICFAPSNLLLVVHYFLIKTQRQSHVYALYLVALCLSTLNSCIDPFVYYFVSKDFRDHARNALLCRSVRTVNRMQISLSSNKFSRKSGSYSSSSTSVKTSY", "test": "cell-based or functional assay"}, "[3]": {"molecular_target": "full length human PAR-2 (human) (UniProt P55085)", "test": "cell-based or functional assay"}, "monkey PAR-2 (monkey)": {"molecular_target": "monkey PAR-2 (monkey)", "test": "cell-based or functional assay"}}, "note": "Where a chain is given by its changes, count along the chain named.", "data": [{"binder": "B1", "values": [{"measurement": "A450 ratio (293/D9/hPAR-2rec to 293/D9 cells)", "setting": "[1]", "result": 1.24}]}, {"binder": "B2", "values": [{"measurement": "H4H581P IC50, NF-kB-luciferase, Bovine Factor Xa", "setting": "[2]", "result": 340, "unit": "nM"}, {"measurement": "H4H581P IC50, NF-kB-luciferase, Human Factor Xa", "setting": "[2]", "result": 109, "unit": "nM"}, {"measurement": "H4H581P IC50, NF-kB-luciferase, Human Kallikrein 14", "setting": "[2]", "result": 256, "unit": "nM"}, {"measurement": "H4H581P IC50, NF-kB-luciferase, Human Pancreatic Trypsin", "setting": "[2]", "result": 491, "unit": "nM"}]}, {"binder": "B3", "values": [{"measurement": "EC50 of activator, NF-kB-luciferase", "setting": "[3]", "result": 5, "unit": "nM"}, {"measurement": "EC50 of activator, NF-kB-luciferase", "setting": "[2]", "result": 8, "unit": "nM"}, {"measurement": "EC50 of activator, NF-kB-luciferase", "setting": "monkey PAR-2 (monkey)", "result": 6.3, "unit": "nM"}]}, {"binder": "B4", "values": [{"measurement": "A450 ratio (293/D9/hPAR-2rec to 293/D9 cells)", "setting": "[1]", "result": 1.54}]}, {"binder": "B5", "values": [{"measurement": "A450 ratio (293/D9/hPAR-2rec to 293/D9 cells)", "setting": "[1]", "result": 1.51}]}, {"binder": "B6", "values": [{"measurement": "A450 ratio (293/D9/hPAR-2rec to 293/D9 cells)", "setting": "[1]", "result": 1.76}]}]}
